Assay: yeast display, Sf9 membrane polyspecificity reagent, FACS + sequencing; frameworks hold sequencing errors
How it was run: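 A nanobody's polyreactivity label depends on the gate it was sorted from. Yeast display cells were stained with 10% biotinylated, detergent-solubilized Sf9 membrane reagent for 1 hour at 4 °C, enriched on streptavidin microbeads and sorted by FACS. The low and high (top ~1%) gates were set on anti-HA fluorescence for expression and streptavidin fluorescence for reagent binding.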
For “QVQLVESGGGLVQAGGSLRLSCAASGSIFVGYAMGWYRQAPGKETELVAAISTRGGSTYYAETVKGRFTISRDNAKNTVYLQMNILKPEDNAVYYCAADYLDSTYGYVYGWDDYWGKGTQVTVSS”, the “polyreactivity (PSR sort gate)” value was “low polyreactivity”. With “QVQLVESGGGLVQAGGSLRLSCAASGSIFVIYAMGWYRPAPGKERELVAAITGRGGRTYYADSVKGRFTISRDNAKNTVYLQMISLKPEDNAVYYCAADSVYTLGLKYDYWGHGTQVTVSS” the “polyreactivity (PSR sort gate)” value was “high polyreactivity”. In the case of “QVQLVESGGGLVQAGGSLRLSCAASGSIFVKNAMGWYIHAPGKERELVATISRRGGSTYYADSVKGRFTISRDIAKNTVYLQMNSMKPEDTAVYYCAADRSNRPYYRQGYDYWGQGTQVTVSS”, the “polyreactivity (PSR sort gate)” value is reported as “high polyreactivity”. For “QVQLVESGGGLVQAGGSLRLSCAASGSIFVKNAMGWYRQAPGKERELVAVITIRTATPYYADSVKGRFTISRDNAKNSVYLQMNSLKPEDTAVYYCAAAKRQRGYLQREGNYWGQGTQVTVSS”, the “polyreactivity (PSR sort gate)” value was “low polyreactivity”. With “QVQLVESGGGLVQAGGSLRLSCAASGSIFVKYAMGWYRQAPGTERELVAAISWSGDSTYYADSVKGRITISRDNAKNTVYLQMNSLIPEDTAVYFCAAYSGYGGVSMYYWGQGTQVTVSS” the “polyreactivity (PSR sort gate)” value was “low polyreactivity”. In the case of “QVQLVESGGGLVQAGGSLRLSCAASGSIFVLNAMGLYRQAPGKERELVAGISSSGGSTYYADSVKGRFTISRDNAKNTVYLQMNSLKPEDTAVYYFAKDAGLYEGDYWGQGTQVTVSS”, the “polyreactivity (PSR sort gate)” value is reported as “low polyreactivity”. In the case of “QVQLVESGGGLVQAGGSLRLSCAASGSIFVLNAMGWYRQAPGKERELGAAITNVGSTYYADSVKGRFTISRDNAKNTVYLQMNSLKPEDTAVYYCNAVLAPGGYDYWGQGTQVTVSS”, the “polyreactivity (PSR sort gate)” value is reported as “low polyreactivity”. In the case of “QVQLVESGGGLVQAGGSLRLSCAASGSIFVLYAMGWYRQAPGKERELVAAINYDGASTYYADSVKGRFTISRDNAKNTVYLQMNSLKREDTAVYYCAKRFGPAYFRLYDYWGQGTQVTVSS”, the “polyreactivity (PSR sort gate)” value is reported as “low polyreactivity”. In the case of “QVQLVESGGGLVQAGGSLRLSCAASGSIFVNNAMGLYRQAPGKERELVAAISSRSSRTFYADSVKGRFTISRDYAKNTVYLQMNSLKPEDTAVYYCAAELYGLKYGYYLSYDYWGQGTQVTVSS”, the “polyreactivity (PSR sort gate)” value is reported as “high polyreactivity”. With “QVQLVESGGGLVQAGGSLRLSCAASGSIFVNYAMGWFRQAPGKERELVAAITRSGGRTYYADSVKGRFTISRDNAKNTVYLQMNSLKPEDTAVYYCAARLGYAGNRDGSWGQGTQVTVSS” the “polyreactivity (PSR sort gate)” value was “high polyreactivity”. With “QVQLVESGGGLVQAGGSLRLSCAASGSIFVNYAMGWYRQAPGKERELVAAISRSGGRTYYADSVKGRFTISRDNAKNTVYLQMNSLKPEDTAVYDCNVYPVLRTIEGDYWGQGTQVTVSS” the “polyreactivity (PSR sort gate)” value was “high polyreactivity”. For “QVQLVESGGGLVQAGGSLRLSCAASGSIFVPNAMGWSRQALGKERELVAAITYSGVDTYYADSVKGRFTISRDNAKNTVYLQMNSLKPEDTAVYYCAADNGRVGYDYWGQGTQVTVSS”, the “polyreactivity (PSR sort gate)” value was “low polyreactivity”. With “QVQLVESGGGLVQAGGSLRLSCAASGSIFVPNTMGWYRQAPGKERELVAVISRSGGSTNYADSVKGRFTISRDNAKNTVYLQMNSLKPEDTAVYYCNADDGYSVWGYDYWGQGTQVTVSS” the “polyreactivity (PSR sort gate)” value was “low polyreactivity”. For “QVQLVESGGGLVQAGGSLRLSCAASGSIFVPYAMGWYRQAPGKEREFVAVISLRGSRTYYADSVKGRFTISRDNAKNTVYLQMNSLKPEDTAVYYCATTGYRLRQATRYDYWGQGTQVTVSS”, the “polyreactivity (PSR sort gate)” value was “high polyreactivity”. With “QVQLVESGGGLVQAGGSLRLSCAASGSIFVPYAMGWYRQAPGKERELVAAISSSTASTYYADSVKGRFTISRDNAKNTVYLQMNRLKPEETAVYYFNAEQWDYGVRVAHYDYWGQGTQVTVSS” the “polyreactivity (PSR sort gate)” value was “low polyreactivity”. For “QVQLVESGGGLVQAGGSLRLSCAASGSIFVPYAMGWYRQAPGKERELVAGINWSSGRTYYADSVKGRFTISRDNAKNTVYLQMNSLKPEDTAVYYCAAEKYTTYSFYHVAYDYWGQGTQVTVSS”, the “polyreactivity (PSR sort gate)” value was “high polyreactivity”. With “QVQLVESGGGLVQAGGSLRLSCAASGSIFVPYAMGWYRQAPGKERELVATITISGGSTYYADSVKGRFTISRDNAKNTVYLQMNSLKPEDTAVYYCAAETTASYYKRTDDYDYWGQGTQVTVSS” the “polyreactivity (PSR sort gate)” value was “low polyreactivity”. With “QVQLVESGGGLVQAGGSLRLSCAASGSIFVRNAMGWYRQAPGKERELVAADSVKGRFTISRDNAKNTVYLQMNSLKPEDTAVYYCNKDYIIRRGPIVYYGFDYWGQGTQVTVSS” the “polyreactivity (PSR sort gate)” value was “low polyreactivity”. In the case of “QVQLVESGGGLVQAGGSLRLSCAASGSIFVRNAMGWYRQAPGKERELVATITRRGGRTYYADSVKGRFTISRDNAKNTVYLQMNSLKPEDTAVYYCAARVRTATRRFTSYYWGQGTQVTVSS”, the “polyreactivity (PSR sort gate)” value is reported as “high polyreactivity”. For “QVQLVESGGGLVQAGGSLRLSCAASGSIFVRYAMGGYRQAPGKERELVASIRSRGDSTYYADSVKGRFTISRDNAKNTVYLQMISLKPEDTAVYFFADRRYPPRMDYWGQGTQVTVSS”, the “polyreactivity (PSR sort gate)” value was “high polyreactivity”. In the case of “QVQLVESGGGLVQAGGSLRLSCAASGSIFVRYAMGWYRQAPGKERELVAAISSGGRTYYADSVKGRFTISRDNAKNTVYLQMNSLKPEDTAVYYCNAVKRVPSLGPYDYWGQGTQVTVSS”, the “polyreactivity (PSR sort gate)” value is reported as “high polyreactivity”. In the case of “QVQLVESGGGLVQAGGSLRLSCAASGSIFVSNAMGWYRQAPGKERELVAAISSGGSTNYADSVKGRFTISRDNAKNTVYLQMNSLKPEDTAVYYCAARYYGYAGRFDYWGQGTQVTVSS”, the “polyreactivity (PSR sort gate)” value is reported as “low polyreactivity”. With “QVQLVESGGGLVQAGGSLRLSCAASGSIFVSNARVWYRQAPGKERELVAANTSSGSTDYADSVKGRFTISRANAKNTVYLQMNSLKPEDTAVYYCAAESYHTFFLWSLNDSWGQGTQVTVSS” the “polyreactivity (PSR sort gate)” value was “low polyreactivity”. For “QVQLVESGGGLVQAGGSLRLSCAASGSIFVSYTMGWYRQAPGKERELVAAITRSGGSTYYADSVKGRFTISRDNAKNTVYLQMNSLKPEDTAVYYCAAGTVDYRGYFEMYFWGQGTQVTVSS”, the “polyreactivity (PSR sort gate)” value was “low polyreactivity”. For “QVQLVESGGGLVQAGGSLRLSCAASGSIFVSYTMGWYRQPPGKERELVAAISGGGASTYYADSVKGRFTISRDNAKNTVYLQMNSLKPEDTAVYYCNASRKRSYDYWGQGTQVTVSS”, the “polyreactivity (PSR sort gate)” value was “low polyreactivity”. In the case of “QVQLVESGGGLVQAGGSLRLSCAASGSIFVTNAMGWYRQAPGKERELVAAISNSGSSTYYADSVKGRFTISRDNAKNTVYLQMNSLKPEDTAVYYCAADWYGVTGSYYYWGQGTQVTVSS”, the “polyreactivity (PSR sort gate)” value is reported as “high polyreactivity”. In the case of “QVQLVESGGGLVQAGGSLRLSCAASGSIFVTNAMGWYRQAPGKERELVAAISWRGGSTYYADSVKGRFTISRDNAKNTVYLQMNSLKPEDTAVYYCNTYHPYWGSGFDYWGQGTQVTVSS”, the “polyreactivity (PSR sort gate)” value is reported as “low polyreactivity”. With “QVQLVESGGGLVQAGGSLRLSCAASGSIFVTNAMGWYRQAPGKERELVAAISWRGGSTYYADSVKGRFTISRDNAKNTVYLQMNSLKPEDTGVYDCNTYHPYWGSGFDYWGLGTQVTVSS” the “polyreactivity (PSR sort gate)” value was “low polyreactivity”. With “QVQLVESGGGLVQAGGSLRLSCAASGSIFVTNAMGWYRQAPGKEREMVATITSSGSTNYADSVKGRFTISRDNAKNTVYLQMNSLKPEDTAVYYCAKRWLWYYWGFAPSDYWGQGTQVTVSS” the “polyreactivity (PSR sort gate)” value was “low polyreactivity”. For “QVQLVESGGGLVQAGGSLRLSCAASGSIFVTNGMGWYRQAPGKERELVAVISWGGGNTYYADSVKGRFTISRDNAKNTVYLLMNNLKPEDTAVYYCAVELYWDYYFTYGYWGKGTQVTVSS”, the “polyreactivity (PSR sort gate)” value was “low polyreactivity”. With “QVQLVESGGGLVQAGGSLRLSCAASGSIFVTYAMGGYRQAPGKERELVAAISTSGGSTYADSVKGRFTISRDNAKNTVYLQMNSLKPEDTAVYYCNADDPGYAVPWYWFKFDYWGQGTQVTVSS” the “polyreactivity (PSR sort gate)” value was “low polyreactivity”. In the case of “QVQLVESGGGLVQAGGSLRLSCAASGSIFVTYAMGLYRQAPGKERELVAAITSSDRTKYADSVKGRFTISRDNAKNTVYVQMHSLKPEDTAVYYGAKVVRTRYYGGYDYWGQVTQVTVSS”, the “polyreactivity (PSR sort gate)” value is reported as “high polyreactivity”. For “QVQLVESGGGLVQAGGSLRLSCAASGSIFVTYDMGWYRQAPGKERELVAGISGSGSTYYADSVKGRFTISRDNAKNTVYLQMNSLKPEDTAGYYCAAVWSRFLISYSTGWWFEYWGQGTQVTVSS”, the “polyreactivity (PSR sort gate)” value was “low polyreactivity”. In the case of “QVQLVESGGGLVQAGGSLRLSCAASGSIFVVYAMGWYRQAPGKARALVAAITSDDDTNYADSVKGRFTLSRDNAKNTVYLQMNSLKPEDTAVYYCAKEVWLAINTRTGYEVYYWGQGTQVTVTS”, the “polyreactivity (PSR sort gate)” value is reported as “low polyreactivity”. With “QVQLVESGGGLVQAGGSLRLSCAASGSIFVWNAMGWYRPAPGKERELVAAISYTDGSTYYADSVKGRFTISRDNAKNTVYLQMNSLKPVDTAVYYCAAAITPSYTGSEYDYWGQGTQVTVSS” the “polyreactivity (PSR sort gate)” value was “low polyreactivity”. With “QVQLVESGGGLVQAGGSLRLSCAASGSIFVWNAMGWYRQAPGKERELVAAITNIGGRTYYADSVKGRFTISRDNAKNTFYLQMNSLKPEDTAVYYCNVVVKGAWDYYPYDYWGQGTQVTVSS” the “polyreactivity (PSR sort gate)” value was “high polyreactivity”. With “QVQLVESGGGLVQAGGSLRLSCAASGSIFVWYAMGWYRQAPGKERELVARITSGGRTNYADSVKGRFTISRDNAKNTVYLQMNSLKPEDTAVYYCAAGRVSWSAYYYWGQGSQVTVSS” the “polyreactivity (PSR sort gate)” value was “high polyreactivity”. In the case of “QVQLVESGGGLVQAGGSLRLSCAASGSIFVWYVMGWSRPAAGKERELVAAITWSAARTYYADSVKGRFTISRDNAKNTVYLQMNSLKPEDTAVYYCAADHVSYQPSSRIFDYWGQGTQVTVSS”, the “polyreactivity (PSR sort gate)” value is reported as “low polyreactivity”. With “QVQLVESGGGLVQAGGSLRLSCAASGSIFVWYVMGWYRQAPGKERELVAAITWSAARTYYADSVKGRFTISRDNAKNTVYLQMNSLKPADTAVYYCAADHVSYQPSSRIFDYWGHGTQVTVSS” the “polyreactivity (PSR sort gate)” value was “low polyreactivity”. In the case of “QVQLVESGGGLVQAGGSLRLSCAASGSIFVYNAMAWYRPAPGKERELVAAISRGGRTYADSVKGRFTISRDNAKNTVYLQMNSLKPEDTAVYYCAAQGYYRSWYSRQGHYDYWGQGTQVTVSS”, the “polyreactivity (PSR sort gate)” value is reported as “high polyreactivity”. In the case of “QVQLVESGGGLVQAGGSLRLSCAASGSIFVYNAMGWYRHAPGTERELVAAISRRGGSTYYADSVKGRFTISRDNAKNTVYLQMNSLKPEDTAVYYCAAFASATRYDYWGQGTQVTVSS”, the “polyreactivity (PSR sort gate)” value is reported as “high polyreactivity”. With “QVQLVESGGGLVQAGGSLRLSCAASGSIFVYNAMGWYRQAPGKERELVAAISWSGGRTYYADSVKGRFTISRDNAKNTVYIQMNSLKPEDTAVYYCAARGPTRVPYNYWGQGTQVTVSS” the “polyreactivity (PSR sort gate)” value was “high polyreactivity”. For “QVQLVESGGGLVQAGGSLRLSCAASGSIFVYNAMGWYRQAPGKERELVAGITFIGGSTYYADPVKGRFTISRDNAKNTVYLQMNSLKPEDTAVYYCNADVAPGIFYGYDSWGQGTQVTVSS”, the “polyreactivity (PSR sort gate)” value was “low polyreactivity”.

From the nanobody polyreactivity screen of Harvey et al. (2022)
